The values below come from patent US20190218553, “VON WILLEBRAND FACTOR (VWF)-TARGETING AGENTS AND METHODS OF USING THE SAME” (DUKE UNIVERSITY, published 2019).

For data set [1], the target named is T1, von Willebrand factor (VWF) (Homo sapiens, UniProt P04275 P04275:764-2813). Nature of the data set: filter; Bmax 68%; 2 mM CaCl2, 37 C. Particulars: tags: factor VIII free, Haematologic Technologies Inc; label: 5'-32P. The procedure: (§1) Affinity constants (Kd values) were determined using double-filter nitrocellulose filter binding assays (Rusconi et al, Thromb. Haemost. $4:841-848 (2000)). All binding studies were performed in binding buffer F (20 mM HEPES, pH 7.4, 150 mM NaCl, 2 mM CaCl₂, and 0.01% BSA) at 37° C. Human purified VWF (factor VIII free) was purchased from Haematologic Technologies Inc. (Essex Junction, Vt.) and used in the double-filter nitrocellulose filter binding assay to determine the Kd of the aptamers. Briefly, RNA were end-labeled at the 5′ end with T4 polynucleotide kinase (New England Biolabs, Beverly, Mass.) and [γ³²P] ATP (Amersham Pharmacia Biotech, Piscataway, N.J.) (Fitzwater and Polisky, Methods Enzymol. 267:275-301 (1996)). End-labeled RNA was diluted in binding buffer F, heat denatured at 65° C. for 5 minutes, and subsequently equilibrated at 37° C. Direct binding was performed by incubating trace ³²P-RNA with varying concentrations of VWF protein in binding buffer F at 37° C. for 5 min. The fraction of the nucleic acid-protein complex which bound to the nitrocellulose membrane was quantified with a phosphorimager (Molecular Dynamics, Sunnyvale, Calif.). Non-specific binding of the radiolabeled nucleic acid was subtracted out of the binding such that only specific binding remained (Wong and Lohman, Proc. Natl. Acad. Sci. USA 90:5428-5432 (1993)).

In data set [2] the target is T1, von Willebrand factor (VWF). In words: filter; Bmax 43%; 2 mM CaCl2, 37 C. The conditions noted are these: tags: factor VIII free, Haematologic Technologies Inc; label: 5'-32P. The procedure:
as §1

The target is the same in data set [3]. Nature of the data set: filter; NB (no binding); 2 mM CaCl2, 37 C. Particulars: tags: factor VIII free, Haematologic Technologies Inc; label: 5'-32P. The procedure:
as §1

For data set [4] the target is unchanged. In words: filter; Bmax 64%; 2 mM CaCl2, 37 C. Particulars: tags: factor VIII free, Haematologic Technologies Inc; label: 5'-32P. The procedure:
as §1

Data set [5] shares this target. In words: filter; Bmax 20%; 2 mM CaCl2, 37 C. The conditions noted are these: tags: factor VIII free, Haematologic Technologies Inc; label: 5'-32P. The procedure: as §1
The target is the same in data set [6]. Nature of the data set: filter; Bmax 64.8%; 2 mM CaCl2, 37 C. Particulars: tags: factor VIII free, Haematologic Technologies Inc; label: 5'-32P. The procedure:
as §1

Data set [7] has the same target. In words: filter; Bmax 65%; 2 mM CaCl2, 37 C. Particulars: tags: factor VIII free, Haematologic Technologies Inc; label: 5'-32P. How it is done:
as §1

The target is the same in data set [8]. Nature of the data set: filter; Bmax 37%; 2 mM CaCl2, 37 C. The conditions noted are these: tags: factor VIII free, Haematologic Technologies Inc; label: 5'-32P. How it is done:
as §1

The target is the same in data set [9]. Nature of the data set: filter; Bmax 38%; 2 mM CaCl2, 37 C. The conditions noted are these: tags: factor VIII free, Haematologic Technologies Inc; label: 5'-32P. The procedure: as §1
The target is the same in data set [10]. Nature of the data set: filter; Bmax 25%; 2 mM CaCl2, 37 C. Particulars: tags: factor VIII free, Haematologic Technologies Inc; label: 5'-32P. The procedure:
as §1

Data set [11] shares this target. In words: filter; Bmax 33%; 2 mM CaCl2, 37 C. Particulars: tags: factor VIII free, Haematologic Technologies Inc; label: 5'-32P. The procedure: as §1
For data set [12] the target is unchanged. Nature of the data set: filter; Bmax 50%; 2 mM CaCl2, 37 C. The conditions noted are these: tags: factor VIII free, Haematologic Technologies Inc; label: 5'-32P. The procedure:
as §1

Data set [13] shares this target. In words: filter; Bmax 21%; 2 mM CaCl2, 37 C. The conditions noted are these: tags: factor VIII free, Haematologic Technologies Inc; label: 5'-32P. How it is done: as §1
Data set [14] has the same target. Nature of the data set: filter; Bmax 63%; 2 mM CaCl2, 37 C. Particulars: tags: factor VIII free, Haematologic Technologies Inc; label: 5'-32P. How it is done:
as §1

The target is the same in data set [15]. Nature of the data set: filter; Bmax 74%; 2 mM CaCl2, 37 C. The conditions noted are these: tags: factor VIII free human purified VWF, Haematologic Technologies Inc; label: 5'-32P. The procedure:
as §1

For data set [16] the target is unchanged. In words: filter; Bmax 70%; 2 mM CaCl2, 37 C. The conditions noted are these: tags: factor VIII free, Haematologic Technologies Inc; label: 5'-32P. The procedure:
as §1

Data set [17] has the same target. Nature of the data set: filter; Bmax 44%; 2 mM CaCl2, 37 C. The conditions noted are these: tags: factor VIII free, Haematologic Technologies Inc; label: 5'-32P. How it is done: as §1
Data set [18] shares this target. In words: filter; Bmax 53%; 2 mM CaCl2, 37 C. Particulars: tags: factor VIII free, Haematologic Technologies Inc; label: 5'-32P. How it is done: as §1

Take ACGAACUGCCCUCAGCUACUUAUGUUGCUGACGCACAGACGU (ssRNA, 2'-F C and U; 2'-OH A and G; 3' idT) [T37]: in data set [1], the dissociation constant Kd was 10 nM.

B1: T22 (ssRNA)
RNA: GGACGAACUGCCCUCAGCUACUUUCAUGUUGCUGACGCACAGACGACUCGCUG
modifications: 2'-F C and U; 2'-OH A and G
Take B1: binding in [2] was characterised by a dissociation constant (Kd) of 28 nM.

B2: T12 (ssRNA)
RNA: GGGAGGAACUGCCCUCAGCUACUUUCAUGUUGCUGACGCACAGACGACUCGCUG
modifications: 2'-F C and U; 2'-OH A and G
Regarding B2, the binding result in data set [3] is reported as “no binding”.

For the molecule ACGAACUGCCCUCGAUCGACGCACAGACGUUUUUU (ssRNA, 2'-F C and U; 2'-OH A and G; 3' idT) [T79], in data set [4], the affinity, expressed as Kd, was 1.6 nM.

Turning to ACGAACUGCCCUCGAUCGACGCACAGACGUUUUUU (ssRNA, mAmCmGmAmAmCmUmGfCfCfCmUmCmGmAmUmCmGmAfCmGfCmAmCmAmGmAmCmGfUmUmUmUmUmU-idT) [T79 vrt3], binding in data set [5] was put at a Kd of 66 nM.

On to ACGAACUGCCCUCGUAAGACGCACAGACGUUUUUU (ssRNA, mAmCmGmAmAmCmUmGfCfCfCmUmCmGmUmAmAmGmAfCrGfCmAmCmAmGmAmCmGmUmUmUmUmUmUidT) [DTRI-019], for which, in data set [6], the Kd came to 4.3 nM.

For ACGAACUGCCCUCGAUCGACGCACAGACGU (ssRNA, mAmCmGmAmAmCfUmGfCfCfCmUmCmGmAmUmCmGmAfCmGfCrAmCmAmGmAmCmGfU-idT) [T59 vrt15], the Kd in data set [7] came out at 32.5 nM.

CCCACGAACUGCCCUCGAUCGACGCACAGACGU (ssRNA, 2'-F C and U; 2'-OH A and G; 3' idT) [T74] yielded a Kd in [8] of 23 nM.

B3: T25 vrt3 (ssRNA)
RNA: ACGAACUGCCCUCAGCUACUUUCAUGUUGCUGACGCACAGACGU
modifications: mAfCmGrArAfCfUrGfCfCfCfUfCrArGfCfUrAfCfUfUfUfCrAfUrGfUfUrGfCfUrGrAfCrGfCrAfCrArGrAfCmGfU-idT (m=2'-OMe, f=2'-F, r=2'-OH)
On to B3, for which the Kd in data set [9] turned out to be 9.2 nM.

B4: T25 vrt24 (ssRNA)
RNA: ACGAACUGCCCUCAGCUACUUUCAUGUUGCUGACGCACAGACGU
modifications: rAfCrGrArAfCfUrGfCfCfCfUfCrArGfCfUrAfCfUfUfUfCrAfUrGfUfUrGfCfUrGrAmCrGfCrAfCrArGrAfCrGfU-idT
The molecule B4 came in with a Kd in data set [10] of 55 nM.

B5: T25 vrt4 (ssRNA)
RNA: ACGAACUGCCCUCAGCUACUUUCAUGUUGCUGACGCACAGACGU
modifications: mAmCmGrArAfCfUrGfCfCfCfUfCrArGfCfUrAfCfUfUfUfCrAfUrGfUfUrGfCfUrGrAfCrGfCrAfCrArGrAmCmGmU-idT
The molecule B5 registered a Kd in data set [11] of 5.9 nM.

The molecule ACGAACUGCCCUCAGACUUUCAUGUCUGACGCACAGACGU (ssRNA, 2'-F C and U; 2'-OH A and G; 3' idT) [T39] had a Kd in data set [12] of 11 nM.

Molecule CCGAACUGCCCUCAGCUAUUAUUAGCUGACGCACAGACGG (ssRNA, 2'-F C and U; 2'-OH A and G; 3' idT) [T30] displayed a Kd in data set [13] of 39.3 nM.

The molecule ACGAACUGCCCUCGAUCGACGCACAGACGUACACA (ssRNA, 2'-F C and U; 2'-OH A and G; 3' idT) [T81] had a Kd in data set [14] of 4.2 nM.

Consider ACGAACUGCCCUCGAUCGACGCACAGACGUACACG (ssRNA, 2'-F C9,C10,C11,C20,G21,C22; rest 2'-OMe; 3' idT) [T84 vrt7], for which, in data set [15], binding was put at a Kd of 182 nM.

Turning to ACGAACUGCCCUCGAUCGACGCACAGACGU (ssRNA, mAmCmGmAmAmCfUmGfCfCfCmUmCmGmAmUmCmGmAfCrGfCmAmCmAmGmAmCmGfU-idT) [T59 vrt17], the Kd in data set [16] was 13 nM.

ACGAACUGCCCUCGAUCGACGCACAGACGU (ssRNA, mAmCmGmAmAmCmUmGfCfCfCmUmCmGmAmUmCmGmAfCfGfCmAmCmAmGmAmCmGfUidT) [DTRI-007] returned a Kd in data set [17] of 16 nM.

Turning to ACGAACUGCCCUCGAUCGACGCACAGACGU (ssRNA, mAfCmGmAmAmCfUmGfCfCfCfUmCmGmAmUmCmGmAfCmGfCmAmCmAmGmAfCmGfU-idT) [T59 vrt4], the Kd in [18] came to 364 nM.

As usually defined, the Kd is the constant that tells how readily two partners part at equilibrium. Read a high Kd as lower affinity.
